# Assay results as given in IntAct's records for PubMed 23518348.
# B1: Androgen receptor (Homo sapiens), P10275 (parent)
# chain: MEVQLGLGRVYPRPPSKTYRGAFQNLFQSVREVIQNPGPRHPEAASAAPPGASLLLLQQQQQQQQQQQQQQQQQQQQQQQETSPRQQQQQQGEDGSPQAHRRGPTGYLVLDEEQQPSQPQSALECHPERGCVPEPGAAVAASKGLPQQLPAPPDEDDSAAPSTLSLLGPTFPGLSSCSADLKDILSEASTMQLLQQQQQEAVSEGSSSGRAREASGAPTSSKDNYLGGTSTISDNAKELCKAVSVSMGLGVEALEHLSPGEQLRGDCMYAPLLGVPPAVRPTPCAPLAECKGSLLDDSAGKSTEDTAEYSPFKGGYTKGLEGESLGCSGSAAAGSSGTLELPSTLSLYKSGALDEAAAYQSRDYYNFPLALAGPPPPPPPPHPHARIKLENPLDYGSAWAAAAAQCRYGDLASLHGAGAAGPGSGSPSAAASSSWHTLFTAEEGQLYGPCGGGGGGGGGGGGGGGGGGGGGGGEAGAVAPYGYTRPPQGLAGQESDFTAPDVWYPGGMVSRVPYPSPTCVKSEMGPWMDSYSGPYGDMRLETARDHVLPIDYYFPPQKTCLICGDEASGCHYGALTCGSCKVFFKRAAEGKQKYLCASRNDCTIDKFRRKNCPSCRLRKCYEAGMTLGARKLKKLGNLKLQEEGEASSTTSPTEETTQKLTVSHIEGYECQPIFLNVLEAIEPGVVCAGHDNNQPDSFAALLSSLNELGERQLVHVVKWAKALPGFRNLHVDDQMAVIQYSWMGLMVFAMGWRSFTNVNSRMLYFAPDLVFNEYRMHKSRMYSQCVRMRHLSQEFGWLQITPQEFLCMKALLLFSIIPVDGLKNQKFFDELRMNYIKELDRIIACKRKNPTSCSRRFYQLTKLLDSVQPIARELHQFTFDLLIKSHMVSVDFPEMMAEIISVQVPKILSGKVKPIYFHTQ
# partner: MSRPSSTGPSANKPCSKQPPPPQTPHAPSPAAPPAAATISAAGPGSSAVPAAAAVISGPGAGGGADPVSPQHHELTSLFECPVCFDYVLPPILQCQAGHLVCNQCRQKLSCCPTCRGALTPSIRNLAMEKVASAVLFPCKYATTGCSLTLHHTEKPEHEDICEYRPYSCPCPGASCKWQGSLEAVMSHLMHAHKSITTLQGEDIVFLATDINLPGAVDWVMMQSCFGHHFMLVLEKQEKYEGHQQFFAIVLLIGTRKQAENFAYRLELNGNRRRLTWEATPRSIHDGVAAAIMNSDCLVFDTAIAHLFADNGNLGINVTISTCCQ
# Variants of: B1
# Conditions: with siah2_mouse Siah2, Q06986
row,effect of a mutation on the interaction,Variant
1,decreasing interaction,L702H
2,decreasing interaction,F755L
3,decreasing interaction,Q799E
4,decreasing interaction,T878A
5,decreasing interaction,H875Y
6,decreasing interaction,R727L
7,decreasing interaction,V716M
8,decreasing interaction,V731M
